Assay results taken from patent publication US20060210536A1 (published 2006).

Biological target: STAT3 (Homo sapiens (Human), UniProt P40763 1-770)
Assay: FLAG affinity purification from transfected cell lysate, immunoblot with STAT3 antiserum

Sequence of STAT3 (P40763 whole entry): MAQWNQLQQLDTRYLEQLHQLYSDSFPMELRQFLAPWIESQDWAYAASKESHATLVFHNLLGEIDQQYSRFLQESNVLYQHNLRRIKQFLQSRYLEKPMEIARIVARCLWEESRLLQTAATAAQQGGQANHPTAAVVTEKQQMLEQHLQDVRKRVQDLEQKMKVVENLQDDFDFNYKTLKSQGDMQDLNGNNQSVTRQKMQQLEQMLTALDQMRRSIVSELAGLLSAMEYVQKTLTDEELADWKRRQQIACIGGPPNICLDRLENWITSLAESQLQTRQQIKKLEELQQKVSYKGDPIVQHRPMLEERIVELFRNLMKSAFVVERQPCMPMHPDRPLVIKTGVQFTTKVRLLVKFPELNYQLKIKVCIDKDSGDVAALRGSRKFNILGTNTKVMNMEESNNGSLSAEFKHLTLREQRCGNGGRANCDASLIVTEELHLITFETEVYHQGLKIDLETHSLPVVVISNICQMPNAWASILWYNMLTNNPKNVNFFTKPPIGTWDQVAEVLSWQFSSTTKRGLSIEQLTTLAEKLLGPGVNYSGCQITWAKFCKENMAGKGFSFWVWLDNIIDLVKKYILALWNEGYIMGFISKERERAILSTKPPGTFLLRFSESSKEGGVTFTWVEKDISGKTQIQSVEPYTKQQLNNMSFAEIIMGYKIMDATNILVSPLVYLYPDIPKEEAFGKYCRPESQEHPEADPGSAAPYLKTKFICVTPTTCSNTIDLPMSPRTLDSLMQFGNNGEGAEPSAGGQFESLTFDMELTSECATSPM

B1: FLAG-tagged SV5 V protein (other)
chain: MDPTDLSFSPDEINKLIETGLNTVEYFTSQQVTGTSSLGKNTIPPGVTGLLTNAAEAKIQESTNHQKGSVGGGAKPKKPRPKIAIVPADDKTVPGKPIPNPLLGLDSTPSTQTVLDLSGKTLPSGSYKGVKLAKFGKENLMTRFIEEPRENPIATSSPIDFKRGRDTGGFHRREYSIGWVGDEVKVTEWCNPSCSPITAAARRFECTCHQCPVTCSECERDT
notes: also called FLAG-SV5 V
B1: no binding.
